Data from PMC3424545 (Nucleic Acids Research, 2012).

Target: T1, His6-tagged Mcm10 (human, UniProt Q7L590 1-875)
T1 sequence (looked up): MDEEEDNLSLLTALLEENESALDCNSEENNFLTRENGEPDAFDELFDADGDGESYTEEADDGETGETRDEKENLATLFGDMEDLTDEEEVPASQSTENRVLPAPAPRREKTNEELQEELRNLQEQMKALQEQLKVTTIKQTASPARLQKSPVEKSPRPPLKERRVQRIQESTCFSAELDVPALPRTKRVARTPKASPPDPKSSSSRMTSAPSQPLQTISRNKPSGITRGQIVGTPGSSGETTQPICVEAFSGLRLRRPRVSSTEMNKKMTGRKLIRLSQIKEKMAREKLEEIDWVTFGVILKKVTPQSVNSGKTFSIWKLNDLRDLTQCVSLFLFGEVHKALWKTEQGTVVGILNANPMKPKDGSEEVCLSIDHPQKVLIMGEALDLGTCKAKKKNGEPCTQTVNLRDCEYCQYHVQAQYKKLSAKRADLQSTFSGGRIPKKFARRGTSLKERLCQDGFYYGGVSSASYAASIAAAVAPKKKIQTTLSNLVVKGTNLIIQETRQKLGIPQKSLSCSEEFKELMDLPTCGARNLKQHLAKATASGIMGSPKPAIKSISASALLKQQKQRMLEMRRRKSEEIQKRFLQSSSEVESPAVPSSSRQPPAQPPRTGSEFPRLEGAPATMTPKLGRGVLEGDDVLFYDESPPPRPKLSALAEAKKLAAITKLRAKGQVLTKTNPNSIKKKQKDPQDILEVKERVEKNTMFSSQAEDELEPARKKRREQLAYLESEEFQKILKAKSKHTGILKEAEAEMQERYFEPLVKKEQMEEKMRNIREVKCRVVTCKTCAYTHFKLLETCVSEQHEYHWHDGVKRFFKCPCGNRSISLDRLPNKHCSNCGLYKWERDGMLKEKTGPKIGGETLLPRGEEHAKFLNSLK
Assay: pull-down

B1: GST-tagged C-terminus VprBP (864-1507) (domain or fragment)
chain: not shown
- binding result: binds
